Measurements: PMC4604771, “A novel eurythermic and thermostale lipase LipM from Pseudomonas moraviensis M9 and its application in the partial hydrolysis of algal oil” (BMC Biotechnology, 2015)

Substrate: CCCCCCCC(=O)Oc1ccc([N+](=O)[O-])cc1
Assay: p-nitrophenol release, Lineweaver-Burk plot
Type: biochemical, Pseudomonas moraviensis
Details: 50 mM Tris-HCl, pH 8.0, 65 °C, 0.01-2 mM substrate

B1: LipM (Pseudomonas moraviensis) (protein)
chain: MGLFDYRNADGKALYSDAIALTLYAYAPTGEPLPATAWAPVAATALGYQGKVGPQGTFFGEQDGYTSAEAEVLGKYDAAGKLIGIGIAFRGTGGLGYSDTYGDMKNNLLAAFGPSDYASHYAKNAFDHLLKAVAAFAIANGIAAQDVLISGHSLGGLGVNSVAELSASHWGGFFKDANYIAFASPTQSSTGSNVLNIGYENDPVFRALDGTTFSSGSLGKHDGAHDSTTDNIVNFTDNYASTAQNLVPFSIVNPLNWSAHSSLGYADGLNRVIDSQFYALTHKDSTIIVSNLEEASRGKTWVEDLGRSGEPHVGSTLIIGTHSSDWLKGGSGNDFLEGLGGDDRFRDDGGFNILLGGQGHNTFELQKPLQNFSFANDGDGTLYVRDAYGGISLTRDIGALVSKEAGSWWGSKEITWGVTAKGLSNGSELTQYNHSLSGDGYGNALHASADGDWLFGLGGNDSLISDKGHVTFVGGAGNDVMTALGGNNTFLFSGAFGFDAVNGYQGNDKLVFMGVEGAGQGYDYKQHASQSGDDTVLKIGDYAVTLIGVGVANLSDSSIMFA
notes: pET-22b(+) NdeI/XhoI, His tag kept (C-terminal by vector)
  Km: 360 µM
  kcat: 35.7 s⁻¹
